Experimental data published in patent US20200123212A1 (3M INNOVATIVE PROPERTIES, published 2020).
Where no end group is shown, it is not given here.

What was measured:
[1] = molecular target: T1, Recombinant Human Epidermal Growth Factor (EGF) (human, UniProt P01133 971-1023); assay: SPR (Test Method A of Example 3), peptide immobilised, EGF injected
T1 construct: Bought reagent; also called EGF protein
Experimental: (§1) The following Test Method A was used for determining the binding affinity (KD) of SEQ ID NO: 1 for EGF and TNF-[…] Binding experiments were performed using Biacore 3000 optical biosensors equipped with research-grade CM5 sensor chips (GE Healthcare Bio-Sciences Corporation). The reagents used for the amine-coupling steps [(1-ethyl-3-(3-dimethylaminopropyl)-carbodiimide (EDC); N-hydroxysuccinimide (NHS); and ethanolamine hydrochloride-NaOH (1 M, pH 8.5)] were obtained from GE Healthcare Bio-Sciences Corporation. In order to efficiently immobilize the peptide on the sensor chips, a modified version of SEQ ID NO:1 was prepared by SPPS in which a “CK” amino acid linker sequence was added to the N-terminal end of the SEQ ID NO: 1 peptide (i.e. linker modified version of SEQ ID NO: 1 for immobilization being […]). A standard coupling protocol was employed to immobilize the linker modified version of SEQ ID NO: 1 via the lysine residue. The immobilization was performed at 25° C. using HBS-EP as the running buffer. The CM-dextran surfaces of the sensor chip flow cells were activated by a seven minute injection (20 microliters/minute) of freshly prepared 1:1 50 mM NHS: 200 mM EDC. A solution of linker modified SEQ ID NO: 1 in acetic acid (20 mM, pH 5.5) was injected to target 200 response units (RU). […]

[2] = molecular target: T2, Recombinant Human Tumor Necrosis Factor-alpha (TNF-alpha) (human, UniProt P01375 77-233); assay: SPR (Test Method A of Example 3), peptide immobilised, TNF-alpha injected
T2 construct: Bought reagent; also called TNFα
Experimental: as §1

[3] = molecular target: T1, Recombinant Human Epidermal Growth …; assay: dot blot, EGF spotted on nitrocellulose, biotinylated peptide in solution, detected with Streptavidin-HRP
Experimental: EGF (1 microliter of a 10 nM solution in PBS was spotted a nitrocellulose membrane (obtained from Thermo Fisher Scientific) and the membrane was dried in air for about 30 minutes. The membrane was then incubated in 15 mL of blocking buffer (3 wt. % BSA in PBS) for one hour at room temperature. The membrane was washed three times (15 minutes for each wash) with 15 mL portions of fresh PBST. The washed membrane was incubated with Biotinylated SEQ ID NO: 1 [10 mL of a 10 ng/mL solution in blocking buffer (3 wt. % BSA in PBS)] with gentle agitation for one hour. The membrane was again washed three times (15 minutes for each wash) with 15 mL portions of fresh PBST. The washed membrane was incubated with Streptavidin-HRP [1:5000 dilution in 10 mL of the blocking buffer (3 wt. % BSA in PBS)] for 30 minutes with gentle agitation. Following the incubation, the membrane was washed three times (15 minutes for each wash) with 15 mL portions of fresh PBST. The washed membrane was incubated with 10 mL of the development solution for horseradish peroxidase (TMB-Blotting Substrate Solution, Pierce-Fisher Scientific) with gentle agitation. The color development was stopped by adding water. A dark spot developed at the application site on the membrane indicating affinity of SEQ ID NO: 1 for EGF.

[4] = molecular target: T1, Recombinant Human Epidermal Growth …; assay: SPR (Biacore 3000, CM5), peptide immobilised, EGF injected at 62.5-1000 nM, 25 C, 1:1 Langmuir global fit
Experimental: as §1

[5] = molecular target: T2, Recombinant Human Tumor Necrosis …; assay: SPR (Biacore 3000, CM5), peptide immobilised, TNF-alpha injected at 62.5-1000 nM, 25 C, 1:1 Langmuir global fit
Experimental: as §1

[6] = molecular target: T1, Recombinant Human Epidermal Growth …; assay: dot blot, peptide spotted on nitrocellulose, EGF in solution, detected with anti-EGF-IgG-HRP
Experimental: SEQ ID NO: 1 (1 microliter of a 10 nM solution in PBS containing 3 wt. % DMSO) and SEQ ID NO: 2 (1 microliter of a 10 nM solution in PBS containing 3 wt. % DMSO) were individually spotted at separate sites on a nitrocellulose membrane (obtained from Thermo Fisher Scientific, Waltham, Mass.) and the membrane was dried in air for about 30 minutes. The membrane was then incubated in 25 mL of blocking buffer (3 wt. % BSA in PBS) for one hour at room temperature. The membrane was washed three times (15 minutes for each wash) with 15 mL portions of fresh PBST. The washed membrane was incubated with EGF protein [10 microliters of a 100 ng/mL solution in blocking buffer (3 wt. % BSA in PBS)] with gentle agitation for one hour. The membrane was again washed three times (15 minutes for each wash) with 15 mL portions of fresh PBST. The washed membrane was incubated with anti-EGF-IgG-HRP [1:5000 dilution in 10 mL of the blocking buffer (3 wt. % BSA in PBS)] for one hour with gentle agitation. Following the incubation, the membrane was washed three times (15 minutes for each wash) with 15 mL portions of fresh PBST. The washed membrane was incubated with 10 mL of the development solution for horseradish peroxidase (TMB-Blotting Substrate Solution, Pierce-Fisher Scientific, Rockford, Ill.) with gentle agitation. The color development was stopped by adding water.

T1 sequence (P01133 971-1023 limits assumed): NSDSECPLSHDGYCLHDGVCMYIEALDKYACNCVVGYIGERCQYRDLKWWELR
T2 sequence (P01375 77-233 limits assumed): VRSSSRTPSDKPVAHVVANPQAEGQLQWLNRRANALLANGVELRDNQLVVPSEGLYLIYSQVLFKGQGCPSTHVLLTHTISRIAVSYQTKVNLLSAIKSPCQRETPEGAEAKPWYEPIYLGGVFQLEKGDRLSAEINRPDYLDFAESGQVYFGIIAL

B1: linker modified version of SEQ ID NO: 2 (CKWFEWPYWE) (peptide)
peptide: CKWFEWPYWE
modifications: also: immobilised on CM5 sensor chip via Lys of linker, conjugated to iodoacetyl magnetic beads via Cys of linker
B1 was tested. Which Kd [1] did it give?
Its Kd is 0.466 µM.

What about the Kd [2] of the same binder?
Its Kd is 340 µM.

Does WFEWPYWEMNVPDVWN (also: biotinylated, site not given here) [Biotinylated SEQ ID NO: 1] bind [3]?
Result: binds

Which Kd [4] does the source give for CKWFEWPYWEMNVPDVWN (also: amine-coupled to CM5 sensor chip via Lys of CK linker) [linker modified version of SEQ ID NO: 1 (CKWFEWPYWEMNVPDVWN)] here?
The Kd was 0.087 µM.

What about the Kd [5] of the same binder?
The Kd was 75.1 µM.

Does Ac-WFEWPYWE-NH2 (Chemically synthesised (SPPS)) [peptide SEQ ID NO: 2 (WFEWPYWE)] bind [6]?
Result: binds

Does Ac-WFEWPYWEMNVPDVWN-NH2 (Chemically synthesised (SPPS)) [peptide SEQ ID NO: 1 (WFEWPYWEMNVPDVWN)] bind [6]?
Result: binds
